We go through one substance from PMC10592010.

The target of this assay is EGFP-tagged full-length AR pQ69 mutant (GFP-ARpQ69) (human) (UniProt P10275). The assay can be described thus: live-cell single-particle tracking.

“Halo-tagged AR NTD pQ69 with NLS (Halo-ARNTDpQ69-NLS) (from UniProt P10275-1 1-538) (domain or fragment)”: the residence time (RT) is 16 s.
